Source: publication PMC10044410 (Cell, 2023)

How the values were obtained:
[1] = biological target: GroEL_(R452A/E461A/S463A/V464A) (E. coli, UniProt P0A6F5 1-548, R452A | E461A | S463A | V464A); assay: SEC
[2] = biological target: GroEL (untagged, from pET15b, for quantitative binding studies) (E. coli, UniProt P0A6F5 1-548); assay: other fluorescence titration
[3] = biological target: GroEL (wild type, recombinant, from pET22b-groL) (E. coli, UniProt P0A6F5 1-548); assay: SEC

B1: CnoX (wild type, recombinant, from pET22b-cnoX) (natural protein, E. coli)
chain: MSVENIVNINESNLQQVLEQSMTTPVLFYFWSERSQHCLQLTPILESLAAQYNGQFILAKLDCDAEQMIAAQFGLRAIPTVYLFQNGQPVDGFQGPQPEEAIRALLDKVLPREEELKAQQAMQLMQESNYTDALPLLKDAWQLSNQNGEIGLLLAETLIALNRSEDAEAVLKTIPLQDQDTRYQGLVAQIELLKQAADTPEIQQLQQQVAENPEDAALATQLALQLHQVGRNEEALELLFGHLRKDLTAADGQTRKTFQEILAALGTGDALASKYRRQLYALLY
- binding result [1]: binds

B2: GroES (for quantitative binding studies, His tag removed) (natural protein, E. coli)
chain: MNIRPLHDRVIVKRKEVETKSAGGIVLTGSAAAKSTRGEVLAVGNGRILENGEVKPLDVKVGDIVIFNDGYGVKSEKIDNEEVLIMSESDILAIVEA
- Ki [2]: 47 nM

B3: Citrate synthase (CS) from pig hearts, chemically unfolded (enzyme, UniProt P00889 28-464, looked up)
chain: ASSTNLKDILADLIPKEQARIKTFRQQHGNTVVGQITVDMMYGGMRGMKGLVYETSVLDPDEGIRFRGYSIPECQKMLPKAKGGEEPLPEGLFWLLVTGQIPTEEQVSWLSKEWAKRAALPSHVVTMLDNFPTNLHPMSQLSAAITALNSESNFARAYAEGIHRTKYWELIYEDCMDLIAKLPCVAAKIYRNLYREGSSIGAIDSKLDWSHNFTNMLGYTDAQFTELMRLYLTIHSDHEGGNVSAHTSHLVGSALSDPYLSFAAAMNGLAGPLHGLANQEVLVWLTQLQKEVGKDVSDEKLRDYIWNTLNSGRVVPGYGHAVLRKTDPRYTCQREFALKHLPHDPMFKLVAQLYKIVPNVLLEQGKAKNPWPNVDAHSGVLLQYYGMTEMNYYTVLFGVSRALGVLAQLIWSRALGFPLERPKSMSTDGLIKLVDSK
- binding result [3]: binds
